Assays:
[1] = target: NS5A 1b-5 (untagged, expressed from pYES-NS5A 1b-5)
[2] = target: NS5A 1b-wt (untagged, expressed from pYES-NS5A 1b-wt)
[3] = target: vaccinia virus K3L protein, P18378
[4] = target: NS5A 1b-2 (untagged, expressed from pYES-NS5A 1b-2)
[5] = target: T1, GST-NS5A (HCV-1a NS5A aa 1-427 fused in frame with glutathione-S-transferase), P26664
T1 chain: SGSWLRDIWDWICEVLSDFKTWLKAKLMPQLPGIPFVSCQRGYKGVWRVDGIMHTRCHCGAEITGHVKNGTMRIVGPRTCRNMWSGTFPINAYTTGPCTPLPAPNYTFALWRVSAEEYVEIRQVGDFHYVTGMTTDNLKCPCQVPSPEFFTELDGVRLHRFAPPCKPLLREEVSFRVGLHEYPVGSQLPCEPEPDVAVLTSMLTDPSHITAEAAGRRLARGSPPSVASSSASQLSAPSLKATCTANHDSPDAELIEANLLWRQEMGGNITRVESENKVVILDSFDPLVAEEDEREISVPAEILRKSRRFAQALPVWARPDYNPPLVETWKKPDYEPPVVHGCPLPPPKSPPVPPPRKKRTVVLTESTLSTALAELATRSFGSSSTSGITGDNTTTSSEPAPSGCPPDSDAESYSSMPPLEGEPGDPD

[6] = target: GST (glutathione-S-transferase alone) [GST: P08515]
[7] = target: T2, NS5A 1a-wt (full-length NS5A from IFN-resistant HCV-1a, untagged), P26664
T2 chain: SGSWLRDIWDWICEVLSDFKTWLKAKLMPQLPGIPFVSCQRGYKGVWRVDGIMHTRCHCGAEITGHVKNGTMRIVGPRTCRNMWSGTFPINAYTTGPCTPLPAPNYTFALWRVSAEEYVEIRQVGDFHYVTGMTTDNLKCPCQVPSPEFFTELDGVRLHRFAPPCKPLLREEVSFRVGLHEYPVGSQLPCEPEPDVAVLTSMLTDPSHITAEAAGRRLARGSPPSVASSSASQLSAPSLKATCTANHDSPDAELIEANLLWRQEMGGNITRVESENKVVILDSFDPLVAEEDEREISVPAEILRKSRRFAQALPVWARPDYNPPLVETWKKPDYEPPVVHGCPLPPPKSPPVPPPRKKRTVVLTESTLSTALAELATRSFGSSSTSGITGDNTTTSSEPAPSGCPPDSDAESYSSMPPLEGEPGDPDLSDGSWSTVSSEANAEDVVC

[8] = target: NS5A 1b-4 (untagged, expressed from pYES-NS5A 1b-4)

B1: wild type human PKR, full length (aa 1-551) (protein)
chain: MAGDLSAGFFMEELNTYRQKQGVVLKYQELPNSGPPHDRRFTFQVIIDGREFPEGEGRSKKEAKNAAAKLAVEILNKEKKAVSPLLLTTTNSSEGLSMGNYIGLINRIAQKKRLTVNYEQCASGVHGPEGFHYKCKMGQKEYSIGTGSTKQEAKQLAAKLAYLQILSEETSVKSDYLSSGSFATTCESQSNSLVTSTLASESSSEGDFSADTSEINSNSDSLNSSSLLMNGLRNNQRKAKRSLAPRFDLPDMKETKYTVDKRFGMDFKEIELIGSGGFGQVFKAKHRIDGKTYVIKRVKYNNEKAEREVKALAKLDHVNIVHYNGCWDGFDYDPETSDDSLESSDYDPENSKNSSRSKTKCLFIQMEFCDKGTLEQWIEKRRGEKLDKVLALELFEQITKGVDYIHSKKLIHRDLKPSNIFLVDTKQVKIGDFGLVTSLKNDGKRTRSKGTLRYMSPEQISSQDYGKEVDLYALGLILAELLHVCDTAFETSKFFTDLRDGIISDIFDKKEKTLLQKLLSKKPEDRPNTSEILRTLTVWKKSPEKNERHTC
In the case of B1, the “eIF-2α serine 51 phosphorylation in yeast RY1-1 (isoelectric focusing immunoblot)” value (from here on “eIF-2α serine 51 phosphorylation”) [1] is reported as “possessed predominantly the hyper-phosphorylated isoform of eIF-2α, similar to the vector control strain”, the “eIF-2α serine 51 phosphorylation” value [2] is reported as “exhibited a significant reduction in the level of hyper-phosphorylated eIF-2α” and the “level of basally phosphorylated eIF-2α relative to total (isoelectric focusing, densitometry)” value [3] is reported as “K3L, 11.7% (lane 3)”. For the same protein, the “eIF-2α serine 51 phosphorylation” value [4] was “possessed predominantly the hyper-phosphorylated isoform of eIF-2α, similar to the vector control strain”, the “PKR autophosphorylation and phosphorylation of an exogenous histone substrate, in vitro kinase assay” value [5] was “as little as 0.2 pmol of NS5A can inhibit 1.8 pmol of PKR” and the “PKR autophosphorylation and phosphorylation of an exogenous histone substrate, in vitro kinase assay” value [6] was “Equal molar levels of GST had no effect upon PKR activity”. For the same protein, the “level of basally phosphorylated eIF-2α relative to total (isoelectric focusing, densitometry)” value [7] was “NS5A, 9.8% (lane 2)”, the “level of unphosphorylated eIF-2α in yeast RY1-1 over vector control” value [7] was “approximately an 11-fold increase in the level of unphosphorylated eIF-2α” and the “eIF-2α serine 51 phosphorylation” value [8] was “possessed predominantly the hyper-phosphorylated isoform of eIF-2α, similar to the vector control strain”.

Reference: patent publication US7148006
